The text below walks through data of patent US20240239881A1.

In general, Kd refers to the free concentration of one partner at which half of the binding sites on the other are occupied at equilibrium, for simple one-to-one binding.

For the assay, the target named is Cynomolgus monkey Ang2 C-terminal domain (Lys274-Phe495) (cynomolgus monkey). As to the kind of experiment: ForteBio BLI, antibody on AHQ sensor, 100 nM antigen, 1:1 model.
Chain of Cynomolgus monkey Ang2 C-terminal domain (Lys274-Phe495) (cynomolgus monkey) (chain, as listed by the source, form in doubt): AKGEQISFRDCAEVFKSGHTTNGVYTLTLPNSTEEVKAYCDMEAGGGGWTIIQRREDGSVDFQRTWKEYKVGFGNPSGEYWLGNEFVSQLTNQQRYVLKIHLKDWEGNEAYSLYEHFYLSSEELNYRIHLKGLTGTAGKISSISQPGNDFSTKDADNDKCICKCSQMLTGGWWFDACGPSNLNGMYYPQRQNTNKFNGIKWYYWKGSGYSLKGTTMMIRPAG

B1: humanized antibody hz81H10.4 (antibody, human IgG1, kappa, V domains shown)
VH: EVQLVESGGGLVKPGGSLRLSCAASGFTFSNYWMNWVRQAPGKGLEWVAEIRLKSNNYATHYAESVKGRFTISRDVSKNTVYLQMNSLKTEDTAVYYCTDTAPFAYWGQGTLVTVSS
VL: DIQMTQSPSSLSASVGDRVTITCKASQDVGTDVAWYQQKPGKAPKLLIYWASTRHTGVPSRFSGSGSGTDFTLTISSLQPEDFATYYCQQYSSYPLTFGGGTKVEIKR
B1 returned a Kd of 88.3 nM.

B2: chimeric antibody 81H10 (antibody, human IgG1, kappa, V domains shown)
VH: EVKLEESGGGLVQPGGSMKLSCVASGFTFSNYWMNWVRQSPEKGLEWVAEIRLKSNNYATHYAESVKGRFTISRDVSKSSVYLQMNNLRTEDTGIYYCTDTAPFAYWGQGTLVTVSA
VL: DIVMTQSHKFMSTSVGDRVSITCKASQDVGTDVAWYQQKPGQSPKLLIYWASTRHTGVPDRFTGSGSGTDFTLTISNVQSEDLSDYFCQQYSSYPLTFGGGTKLEIKR
In the case of B2, the Kd turned out to be 44.3 nM.
